# Results reported in paper PMC7029000.
# Several values for one entry are separate records, joined by “and”; a condition that tells them apart may be missing. Identical values can stand only once.
# How the values were obtained:
# [1] = target: Purified recombinant PKM2 (UniProt P52480); assay: native gel or EMSA; blue native PAGE of purified recombinant PKM2 mixed with natural products (vindoline, pyridoxine and others); tetramer to dimers
# [2] = target: PKM2 (mouse (endogenous in primary astrocytes and striatum)) (UniProt P52480); assay: native gel or EMSA; blue native PAGE (8%, 4 °C) of digitonin lysates of primary astrocytes, immunoblot for PKM2; tetramer to dimers; cells treated with quinpirole, DASA-58, PTX, β-arrestin siRNA, pyridoxine
# [3] = target: PKM2 (mouse (endogenous in primary astrocytes and striatum)) (UniProt P52480); assay: native gel or EMSA; blue native PAGE of striatum of Drd2 flox/flox and Drd2 hGFAPcKO mice after 5 mg/kg quinpirole or pyridoxine for 7 days, immunoblot for PKM2; tetramer to dimers
# Chain of PKM2, P52480 1-531 (enzyme; other documents disagree on this pair) (P52480 whole entry): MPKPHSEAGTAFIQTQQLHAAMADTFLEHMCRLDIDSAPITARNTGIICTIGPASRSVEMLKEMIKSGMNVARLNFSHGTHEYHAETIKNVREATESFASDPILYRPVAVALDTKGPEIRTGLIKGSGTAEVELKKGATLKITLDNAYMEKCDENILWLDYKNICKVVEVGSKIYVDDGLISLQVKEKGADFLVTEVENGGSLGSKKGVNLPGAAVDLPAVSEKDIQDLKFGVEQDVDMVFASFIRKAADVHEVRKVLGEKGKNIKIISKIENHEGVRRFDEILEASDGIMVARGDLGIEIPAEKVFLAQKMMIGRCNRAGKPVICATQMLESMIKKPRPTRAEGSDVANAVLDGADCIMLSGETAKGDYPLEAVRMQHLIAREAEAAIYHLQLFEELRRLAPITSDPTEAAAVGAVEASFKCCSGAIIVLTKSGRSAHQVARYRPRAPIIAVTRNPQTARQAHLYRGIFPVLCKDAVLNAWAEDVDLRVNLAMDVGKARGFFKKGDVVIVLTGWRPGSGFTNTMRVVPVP
# Chain of Purified recombinant PKM2, P52480 1-531 (enzyme; other documents disagree on this pair) (P52480 whole entry): as above
Substance,stoichiometry N [1],stoichiometry N [2],stoichiometry N [3]
"Purified recombinant PKM2, P52480 1-531 (enzyme; other documents disagree on this pair)",2 and 4,,
"PKM2, P52480 1-531 (enzyme; other documents disagree on this pair)",,4 and 2,2 and 4
